According to patent US20100015600A1:

Target: CD66c receptor (human (patients' ileal enterocytes)) (UniProt P40199)
Assay: cell-based or functional assay

Sequence of UniProt P40199 (P40199 35-320): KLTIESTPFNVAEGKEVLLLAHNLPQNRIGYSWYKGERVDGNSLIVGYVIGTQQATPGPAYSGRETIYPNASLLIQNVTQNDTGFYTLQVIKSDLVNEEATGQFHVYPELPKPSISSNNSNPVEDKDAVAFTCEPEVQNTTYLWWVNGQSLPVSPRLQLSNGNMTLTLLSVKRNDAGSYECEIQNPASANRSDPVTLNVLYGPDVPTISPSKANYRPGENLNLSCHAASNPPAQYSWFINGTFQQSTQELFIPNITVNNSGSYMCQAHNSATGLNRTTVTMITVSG

type 1 pili (adhesin FimH) of the E. coli AIEC strain LF82
Adhesion to the enterocytes, no antibody (adhesion index), patient F (bacteria adhering per enterocyte): 1.45 | Adhesion to the enterocytes, no antibody (adhesion index), patient G (bacteria adhering per enterocyte): 1.15 | Adhesion to the enterocytes, no antibody (adhesion index), patient H (bacteria adhering per enterocyte): 1.02 | Adhesion to the enterocytes, no antibody (adhesion index), patient I (bacteria adhering per enterocyte): 1.28
